Source: patent US20250346669A1

target: CD3 on CD3 expressing Jurkat cells (UniProt P07766); test: flow cytometry on CD3 expressing Jurkat cells; concentration of half maximal binding

Row | Substance | EC50 [nM]
1 | UCHT1 Fab fragment | 0.6
2 | OKT3 Fab fragment | 23.7
3 | OKT3 (IgG version of the monospecific anti-CD3 antibody) | 0.3
4 | UCHT1 (IgG version of the monospecific anti-CD3 antibody) | 0.6
